Experimental findings from patent US20140170142A1 (AstraZeneca / MedImmune, published 2014) are described below.

Assay [1] addresses T1, mouse serum albumin (mouse, UniProt P07724 25-608).
T1 construct: also called MSA; mouse albumin
The experiment in a line: SPR (BIAcore 3000), CM5 chip, PBS pH 7.5. The source says: (§1) The interaction between different ABD-Fc variants and MSA (mouse serum albumin), HSA (human serum albumin) and mFcRn were monitored by surface plasmon resonance detection using BIAcore 3000 instrument. (GE Healthcare). First, ABD-Fc variants were coupled to dextran matrix of CM5 sensor chip using an Amine Coupling Kit at a surface density of 1000-2000 RU according to manufacturer's instructions. Human and mouse albumin as well mouse FcRn were flown over in a test-bind experiments at the concentrations ranging from 0.1-10 μM at a flow rate of 5 μl/min. Dilution and binding experiments were carried out in PBS pH7.5; 150 mM NaCl; 0.005% Tween for albumin binding and 50 mM NaPhosphate pH6.0; 150 mM NaCl; 0.005% Tween for mouse FcRn. Subsequently, the format of the Biacore experiments were flipped where mouse and human albumin as well as mouse FcRn were coupled to a CM5 chip using Amine Coupling Kit at surface densities ranging from 500-1500 RU. The ABD-Fc variants were flown over at three different concentrations 0.5; 1 and 10 μM. The latter format was more successful due to higher signal and self-consistency.

A further assay addresses T2, mouse FcRn (mouse, UniProt Q61559 22-297; P01887 21-119, limits assumed).
T2 construct: also called mFcRn
T2 sequence (looked up): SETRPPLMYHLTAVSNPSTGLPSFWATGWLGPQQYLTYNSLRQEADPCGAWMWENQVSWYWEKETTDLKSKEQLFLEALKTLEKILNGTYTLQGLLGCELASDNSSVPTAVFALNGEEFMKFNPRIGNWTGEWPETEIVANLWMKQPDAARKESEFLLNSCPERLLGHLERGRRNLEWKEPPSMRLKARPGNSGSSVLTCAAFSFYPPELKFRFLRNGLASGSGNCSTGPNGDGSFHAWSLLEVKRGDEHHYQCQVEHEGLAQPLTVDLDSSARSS
T2 sequence (b2m, looked up): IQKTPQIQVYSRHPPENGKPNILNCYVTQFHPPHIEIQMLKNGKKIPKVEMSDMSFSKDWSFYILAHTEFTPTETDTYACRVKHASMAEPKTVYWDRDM
The experiment in a line: SPR (BIAcore 3000), CM5 chip, pH 6.0, three concentrations of injectant.
From the text: as §1
In general terms: In SPR one partner is held on a chip, and binding of the other changes the refractive index at the surface.

Assay [2] addresses T3, human serum albumin (human, UniProt P02768 25-609).
T3 construct: also called HSA; human albumin
As to the kind of experiment: SPR (BIAcore 3000), CM5 chip, PBS pH 7.5.
From the text: as §1

Assay [3] addresses T1, mouse serum albumin. The experiment in a line: SPR (BIAcore 3000), CM5 chip, three concentrations of injectant.
From the text: as §1

For assay [4], the target named is T3, human serum albumin. Described as above.
From the text: as §1

T3 sequence (P02768 25-609 limits assumed): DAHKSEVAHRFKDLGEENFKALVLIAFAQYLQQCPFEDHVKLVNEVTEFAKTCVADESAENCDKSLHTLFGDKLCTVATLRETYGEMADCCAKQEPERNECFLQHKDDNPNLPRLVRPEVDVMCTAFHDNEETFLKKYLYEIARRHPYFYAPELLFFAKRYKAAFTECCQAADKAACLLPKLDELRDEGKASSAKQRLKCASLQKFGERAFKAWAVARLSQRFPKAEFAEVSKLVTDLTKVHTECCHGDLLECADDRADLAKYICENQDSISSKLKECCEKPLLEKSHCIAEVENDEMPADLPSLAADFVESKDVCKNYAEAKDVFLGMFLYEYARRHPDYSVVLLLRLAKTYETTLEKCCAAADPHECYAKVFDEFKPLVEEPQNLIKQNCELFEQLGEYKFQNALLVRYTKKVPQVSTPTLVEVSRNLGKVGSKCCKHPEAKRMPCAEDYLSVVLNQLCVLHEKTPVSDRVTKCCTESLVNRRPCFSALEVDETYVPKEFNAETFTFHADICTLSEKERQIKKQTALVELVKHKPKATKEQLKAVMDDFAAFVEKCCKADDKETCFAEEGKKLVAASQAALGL

B1: ABD-Fc: fusion of unmodified ABD and unmodified Fc (Fc fusion)
chain: LAEAKVLANRELDKYGVSDYYKNLINNAKTVEGVKALIDEILAALPGAEPRGPTIKPCPPCKCPAPNLLGGPSVFIFPPKIKDVLMISLSPIVTCVVVDVSEDDPDVQISWFVNNVEVHTAQTQTHREDYNSTLRVVSALPIQHQDWMSGKEFKCKVNNKDLPAPIERTISKPKGSVRAPQVYVLPPPEEEMTKKQVTLTCMVTDFMPEDIYVEWTNNGKTELNYKNTEPVLDSDGSYFMYSKLRVEKKNWVERNSYSCSVVHEGLHNHHTTKSFSRTPGKGGGGSEQKLISEEDLGGGGSHHHHHH
notes: also called wild type ABD-Fc; ABD-Fc parental construct
Turning to B1, the binding result in the assay with mouse serum albumin [1] was “binds”.

B2: ABD-Fc (His 310): knockout substitution in Fc region of Igg2A H310A (Fc fusion)
chain: LAEAKVLANRELDKYGVSDYYKNLINNAKTVEGVKALIDEILAALPGAEPRGPTIKPCPPCKCPAPNLLGGPSVFIFPPKIKDVLMISLSPIVTCVVVDVSEDDPDVQISWFVNNVEVHTAQTQTHREDYNSTLRVVSALPIQAQDWMSGKEFKCKVNNKDLPAPIERTISKPKGSVRAPQVYVLPPPEEEMTKKQVTLTCMVTDFMPEDIYVEWTNNGKTELNYKNTEPVLDSDGSYFMYSKLRVEKKNWVERNSYSCSVVHEGLHNHHTTKSFSRTPGKGGGGSEQKLISEEDLGGGGSHHHHHH
notes: also called ABD-(His310TM)-Fc
Regarding B2, the binding result in the assay with mouse FcRn is recorded as “no binding (tested: 10 µM)”; with mouse serum albumin [1], “binds”; in the assay with human serum albumin [2], “binds”.

B3: ABD-TM-Fc: triple knockout mutations of ABD residues S18A; T20A and Y21A (Fc fusion)
chain: LAEAKVLANRELDKYGVADAYANLINNAKTVEGVKALIDEILAALPGAEPRGPTIKPCPPCKCPAPNLLGGPSVFIFPPKIKDVLMISLSPIVTCVVVDVSEDDPDVQISWFVNNVEVHTAQTQTHREDYNSTLRVVSALPIQHQDWMSGKEFKCKVNNKDLPAPIERTISKPKGSVRAPQVYVLPPPEEEMTKKQVTLTCMVTDFMPEDIYVEWTNNGKTELNYKNTEPVLDSDGSYFMYSKLRVEKKNWVERNSYSCSVVHEGLHNHHTTKSFSRTPGKGGGGSEQKLISEEDLGGGGSHHHHHH
notes: T20A/Y20A; Y21A)
In the case of B3, the binding result with mouse serum albumin [3] and with human serum albumin [4] was “no binding (tested: 10 µM)” each time.
